Measured values taken from patent US8765431B2, “Method for enzymatic production of decarboxylated polyketides and fatty acids” (The Regents of the University of Michigan, priority 2009, dated 2014).

Columns and labels:
Assay type in all cases: biochemical, Lyngbya majuscula
[1] = system: CurM TE; assay: Steady-state kinetic analysis of TE hydrolysis using CoA-linked substrates; settings: steady-state kinetics
Method: (3S)-1-ACP and (3R)-1-ACP were prepared as the TE substrates to test its stereoselectivity for the β-hydroxyl group. The reactions were analyzed by reverse-phase HPLC, and the separated ACP fractions were examined by Fourier transform ion cyclotron resonance mass spectrometry (FTICR-MS) and infrared multiphoton dissociation (IRMPD) (16) techniques. In addition, the chain-release products were detected by LC-MS and confirmed by co-injection with authentic standards. […] However, TE-catalyzed hydrolysis of (3S)-1-ACP was about 5-fold faster than with (3R)-1-ACP (FIG. 5A). […] However, based on bioinformatic analysis of PKS ketoreductase (KR) sequences (17), the CurM KR was predicted to reduce the β-keto to a (R)-β-hydroxyl group in the full-length chain intermediate.
HPLC-based analyses of the TE hydrolysis were performed using XBridge C18 column (4.6×250 mm, 5 μm, Waters) on the Gold HPLC system equipped with an autosampler and controlled by 32 Karat software (Beckman Coulter). Samples were eluted with a linear gradient from 10% to 90% of MeOH/H2O (10 mM CH3CO2NH4). For steady state kinetic studies. TE hydrolysis was examined in 40 μl 50 mM Tris-HCl buffer (pH 7.0) with 100 μM, 200 μM, 500 μM, 1000 μM and 2000 μM (3R)-1-CoA or (3S)-1-CoA. […] The TE hydrolysis reaction was measured by consumption of CoA substrates. […]

[2] = system: CurM ST; assay: ST sulfonation of free acid and ACP-linked substrates (LC-MS, HPLC, FTICR-MS); settings: in the presence of ST and PAPS
Method: Based on the known mechanism of ST enzyme function, CurM ST was predicted to bind to PAPS, and transfer a sulfonate moiety to the β-hydroxyl group of the intermediate tethered to or released from CurM ACP (FIG. 1B). First, the ST substrate was identified by testing the sulfonation of 1 and 1-ACP. The sulfonation of 1 was analyzed by LC-MS, and that of 1-ACP was examined by HPLC and FTICR-MS. […] Likewise, the stereoselectivity of ST for the β-hydroxyl group was determined by comparing the sulfonation efficiency of (3S)-1-ACP and (3R)-1-ACP. Under the same reaction condition, ST sulfonation with (3R)-1-ACP was about 2.5-fold faster than with (3S)-1-ACP (FIG. 6). Thus, CurM ST stereoselectivity is consistent with the predicted formation of a (R)-β-hydroxyl group by CurM KR.
The ST and TE assays were performed using R)-1-ACP and (3S)-1-ACP substrates. Typically, for the ST reactions, about 300 μM ACP-linked substrate was added with 2 μM ST and 2 mM PAPS in 50 mM Tris-HCl buffer (pH 7.0). For the TE reactions, about 300 μM ACP-linked substrate was added with 2 μM TE in 50 mM Tris-HCl buffer (pH 7.0). All the reactions were incubated at room temperature, quenched by addition of 10% formic acid, and analyzed by reverse-phase HPLC using Jupiter C4 column. The ACP fractions were collected, lyophilized and analyzed by FTICR-MS and IRMPD. […]

[3] = system: ACP with the sulfated substrate; assay: TE point mutant activity assay (liberation of holo ACP, HPLC); settings: for Activity compared to wild type: 1 min; for % Activity: relative to wild type CurM TE and free hydrolysis without enzyme, quenched after 1 min
Method: The activity of these mutants was tested using the same assay described previously (28). A one-pot reaction was used where CurM ACP was loaded with a synthesized substrate mimic (FIG. 1B) using Svp, after which CurM ST sulfates the β-hydroxyl. Lastly, CurM TE was added and the reaction is quenched after 1 minute. The liberation of holo ACP was detected by a shift on the HPLC. The ratio of holo ACP to ACP with the sulfated substrate was measured. Mutant activity was compared to the activity of wild type CurM TE and free hydrolysis without enzyme in order to obtain percent activity for the mutants (Table 3).
TE activity was assayed using a modification of the protocol developed by Gu et. al. (28). To generate the sulfated substrate for the TE assay, 225 μM loaded ACP was incubated with 5 μM ST, 1.75 mM PAPS (Sigma), in 100 mM Tris pH 7.9 at room temperature for 10 min. Four μM TE was then added to the mixture and the reaction was quenched with 10% formic acid after 1 min. The samples were analyzed by reverse phase HPLC using a Jupiter C4 column (250×2.0 mm, 5 μm, 300 Å, Phenomenex) and a linear elution gradient from 30% to 90% CH3CN (0.1% CF3CO2H)/H2O (0.1% CF3CO2H) over 45 min.

| Molecule | Activity compared to wild type [3] | % Activity [3] [%] | further results |
| --- | --- | --- | --- |
| CCCCCCCCCC(C[C@H](O)CC(=O)O)OC (mixture of isomers) [(3S)-1, (3S,5RS)-3-Hydroxy-5-methoxytetradecanoic acid] |  |  | Substrate preference of TE [1]: preferred substrate |
| CCCCCCCCCC(CC(O)CC(=O)O)OC (centres unmarked) [compound 1] |  |  | Substrate conversion by ST [2]: No substrate conversion |
| H266R: CurM TE control mutation in the catalytic triad (protein) MEEKFLEFGGNQICLCSWGSPEHPVVLCIHGILEQGLAWQEVALPLAAQGYRVVAPDLFGHGRSSHLEMVTSYSSLTFLAQIDRVIQELPDQPLLLVGHSMGAMLATAIASVRPKKIKELILVELPLPAEESKKESAVNQLTTCLDYLSSTPQHPIFPDVATAASRLRQAIPSLSEEFSYILAQRITQPNQGGVRWSWDAIIRTRSILGLNNLPGGRSQYLEMLKSIQVPTTLVYGDSSKLNRPEDLQQQKMTMTQAKRVFLSGGRNLHIDAAAALASLILTS | 1 % of WT | 1.4 ± 0.2 |  |
| N211A: CurM TE mutant of conserved Asn interacting with R205 (protein) MEEKFLEFGGNQICLCSWGSPEHPVVLCIHGILEQGLAWQEVALPLAAQGYRVVAPDLFGHGRSSHLEMVTSYSSLTFLAQIDRVIQELPDQPLLLVGHSMGAMLATAIASVRPKKIKELILVELPLPAEESKKESAVNQLTTCLDYLSSTPQHPIFPDVATAASRLRQAIPSLSEEFSYILAQRITQPNQGGVRWSWDAIIRTRSILGLANLPGGRSQYLEMLKSIQVPTTLVYGDSSKLNRPEDLQQQKMTMTQAKRVFLSGGHNLHIDAAAALASLILTS | catalytic activity, but at a reduced rate | 54.7 ± 1.8 |  |
| R205A: CurM TE point mutant R205A (protein) MEEKFLEFGGNQICLCSWGSPEHPVVLCIHGILEQGLAWQEVALPLAAQGYRVVAPDLFGHGRSSHLEMVTSYSSLTFLAQIDRVIQELPDQPLLLVGHSMGAMLATAIASVRPKKIKELILVELPLPAEESKKESAVNQLTTCLDYLSSTPQHPIFPDVATAASRLRQAIPSLSEEFSYILAQRITQPNQGGVRWSWDAIIRTASILGLNNLPGGRSQYLEMLKSIQVPTTLVYGDSSKLNRPEDLQQQKMTMTQAKRVFLSGGHNLHIDAAAALASLILTS |  | 6.1 ± 3.1 |  |
| R205Q: CurM TE point mutant R205Q (protein) MEEKFLEFGGNQICLCSWGSPEHPVVLCIHGILEQGLAWQEVALPLAAQGYRVVAPDLFGHGRSSHLEMVTSYSSLTFLAQIDRVIQELPDQPLLLVGHSMGAMLATAIASVRPKKIKELILVELPLPAEESKKESAVNQLTTCLDYLSSTPQHPIFPDVATAASRLRQAIPSLSEEFSYILAQRITQPNQGGVRWSWDAIIRTQSILGLNNLPGGRSQYLEMLKSIQVPTTLVYGDSSKLNRPEDLQQQKMTMTQAKRVFLSGGHNLHIDAAAALASLILTS |  | 1.8 ± 0.3 |  |
| N267A: CurM TE mutant of conserved Asn next to the catalytic His (protein) MEEKFLEFGGNQICLCSWGSPEHPVVLCIHGILEQGLAWQEVALPLAAQGYRVVAPDLFGHGRSSHLEMVTSYSSLTFLAQIDRVIQELPDQPLLLVGHSMGAMLATAIASVRPKKIKELILVELPLPAEESKKESAVNQLTTCLDYLSSTPQHPIFPDVATAASRLRQAIPSLSEEFSYILAQRITQPNQGGVRWSWDAIIRTRSILGLNNLPGGRSQYLEMLKSIQVPTTLVYGDSSKLNRPEDLQQQKMTMTQAKRVFLSGGHALHIDAAAALASLILTS | catalytic activity, but at a reduced rate | 38.4 ± 3.1 |  |
| R205E: CurM TE point mutant R205E (protein) MEEKFLEFGGNQICLCSWGSPEHPVVLCIHGILEQGLAWQEVALPLAAQGYRVVAPDLFGHGRSSHLEMVTSYSSLTFLAQIDRVIQELPDQPLLLVGHSMGAMLATAIASVRPKKIKELILVELPLPAEESKKESAVNQLTTCLDYLSSTPQHPIFPDVATAASRLRQAIPSLSEEFSYILAQRITQPNQGGVRWSWDAIIRTESILGLNNLPGGRSQYLEMLKSIQVPTTLVYGDSSKLNRPEDLQQQKMTMTQAKRVFLSGGHNLHIDAAAALASLILTS |  | 2.3 ± 2.1 |  |
